The results in this text go back to patent publication US20140357577A1, “HIV Membrane Fusion Inhibitors” (priority 2011, published 2014).

Starred links: 1 amine or outer side, 2 acyl side, 3 side chain; linkers in the order of their positions; H or OH if unused. Positions of bridges follow the written chain, without caps; N, C: chain ends. Non-standard residues stand in square brackets, D forms with d. *: point of attachment. cholesteryl‑succinyl = CC(C)CCC[C@@H](C)[C@H]1CC[C@H]2[C@@H]3CC=C4C[C@@H](OC(=O)CCC(=O)*)CC[C@]4(C)[C@H]3CC[C@]12C; pXylylene = c1cc(C[*:2])ccc1C[*:1]; tBuAla = CC(C)(C)C[C@H](N)C(=O)O; Cha = N[C@@H](CC1CCCCC1)C(=O)O; Suc = O=C(CCC(=O)[*:2])[*:1]; B1 = not defined here

The labels stand for the following.
B1: peptide 65 (peptide)
peptide: Ac-ACYAACIEALIRAAQEQQEKNEAALR-NH2
modifications: linker 2-6 via meta‑xylene
B2: peptide 63 (peptide)
peptide: Ac-ACYWACIEALIRAAQEQQEKNEAALR-NH2
modifications: linker 2-6 via pXylylene
SMILES: CC[C@H](C)[C@H](NC(=O)[C@H](CC(C)C)NC(=O)[C@H](C)NC(=O)[C@H](CCC(=O)O)NC(=O)[C@@H](NC(=O)[C@@H]1CSCc2ccc(cc2)CSC[C@H](NC(=O)[C@H](C)NC(C)=O)C(=O)N[C@@H](Cc2ccc(O)cc2)C(=O)N[C@@H](Cc2c[nH]c3ccccc23)C(=O)N[C@@H](C)C(=O)N1)[C@@H](C)CC)C(=O)N[C@@H](CCCNC(=N)N)C(=O)N[C@@H](C)C(=O)N[C@@H](C)C(=O)N[C@@H](CCC(N)=O)C(=O)N[C@@H](CCC(=O)O)C(=O)N[C@@H](CCC(N)=O)C(=O)N[C@@H](CCC(N)=O)C(=O)N[C@@H](CCC(=O)O)C(=O)N[C@@H](CCCCN)C(=O)N[C@@H](CC(N)=O)C(=O)N[C@@H](CCC(=O)O)C(=O)N[C@@H](C)C(=O)N[C@@H](C)C(=O)N[C@@H](CC(C)C)C(=O)N[C@@H](CCCNC(=N)N)C(N)=O
B3: peptide 64 (peptide)
peptide: Ac-ACYAACIEALIRAAQEQQEKNEAALR-NH2
modifications: linker 2-6 via ortho‑xylene
B4: peptide 59 (peptide)
peptide: Ac-ACY[Cha]ACIEALIRAAQEQQEKNEAALR-NH2
modifications: linker 2-6 via B1; reading uncertain
B5: peptide 66 (peptide)
peptide: Ac-ACYAACIEALIRAAQEQQEKNEAALR-NH2
modifications: linker 2-6 via 2,7‑dimethylnaphthyl
B6: peptide 62 (peptide)
peptide: Ac-ACYVACIEALIRAAQEQQEKNEAALR-NH2
modifications: linker 2-6 via pXylylene
SMILES: CC[C@H](C)[C@H](NC(=O)[C@H](CC(C)C)NC(=O)[C@H](C)NC(=O)[C@H](CCC(=O)O)NC(=O)[C@@H](NC(=O)[C@@H]1CSCc2ccc(cc2)CSC[C@H](NC(=O)[C@H](C)NC(C)=O)C(=O)N[C@@H](Cc2ccc(O)cc2)C(=O)N[C@@H](C(C)C)C(=O)N[C@@H](C)C(=O)N1)[C@@H](C)CC)C(=O)N[C@@H](CCCNC(=N)N)C(=O)N[C@@H](C)C(=O)N[C@@H](C)C(=O)N[C@@H](CCC(N)=O)C(=O)N[C@@H](CCC(=O)O)C(=O)N[C@@H](CCC(N)=O)C(=O)N[C@@H](CCC(N)=O)C(=O)N[C@@H](CCC(=O)O)C(=O)N[C@@H](CCCCN)C(=O)N[C@@H](CC(N)=O)C(=O)N[C@@H](CCC(=O)O)C(=O)N[C@@H](C)C(=O)N[C@@H](C)C(=O)N[C@@H](CC(C)C)C(=O)N[C@@H](CCCNC(=N)N)C(N)=O
B7: peptide 60 (peptide)
peptide: Ac-ACY[tBuAla]ACIEALIRAAQEQQEKNEAALR-NH2
modifications: linker 2-6 via B1; reading uncertain
B8: peptide 67 (peptide)
peptide: Suc-ACYAACIEALIRAAQEQQEKNEAALR-NH2
modifications: linker 2-6 via pXylylene
SMILES: CC[C@H](C)[C@H](NC(=O)[C@H](CC(C)C)NC(=O)[C@H](C)NC(=O)[C@H](CCC(=O)O)NC(=O)[C@@H](NC(=O)[C@@H]1CSCc2ccc(cc2)CSC[C@H](NC(=O)[C@H](C)NC(=O)CCC(=O)O)C(=O)N[C@@H](Cc2ccc(O)cc2)C(=O)N[C@@H](C)C(=O)N[C@@H](C)C(=O)N1)[C@@H](C)CC)C(=O)N[C@@H](CCCNC(=N)N)C(=O)N[C@@H](C)C(=O)N[C@@H](C)C(=O)N[C@@H](CCC(N)=O)C(=O)N[C@@H](CCC(=O)O)C(=O)N[C@@H](CCC(N)=O)C(=O)N[C@@H](CCC(N)=O)C(=O)N[C@@H](CCC(=O)O)C(=O)N[C@@H](CCCCN)C(=O)N[C@@H](CC(N)=O)C(=O)N[C@@H](CCC(=O)O)C(=O)N[C@@H](C)C(=O)N[C@@H](C)C(=O)N[C@@H](CC(C)C)C(=O)N[C@@H](CCCNC(=N)N)C(N)=O
B9: peptide 3 (peptide)
peptide: Suc-ANYAALIEALIRAAQEQQEKNEAALR-NH2
SMILES: CC[C@H](C)[C@H](NC(=O)[C@H](CC(C)C)NC(=O)[C@H](C)NC(=O)[C@H](CCC(=O)O)NC(=O)[C@@H](NC(=O)[C@H](CC(C)C)NC(=O)[C@H](C)NC(=O)[C@H](C)NC(=O)[C@H](Cc1ccc(O)cc1)NC(=O)[C@H](CC(N)=O)NC(=O)[C@H](C)NC(=O)CCC(=O)O)[C@@H](C)CC)C(=O)N[C@@H](CCCNC(=N)N)C(=O)N[C@@H](C)C(=O)N[C@@H](C)C(=O)N[C@@H](CCC(N)=O)C(=O)N[C@@H](CCC(=O)O)C(=O)N[C@@H](CCC(N)=O)C(=O)N[C@@H](CCC(N)=O)C(=O)N[C@@H](CCC(=O)O)C(=O)N[C@@H](CCCCN)C(=O)N[C@@H](CC(N)=O)C(=O)N[C@@H](CCC(=O)O)C(=O)N[C@@H](C)C(=O)N[C@@H](C)C(=O)N[C@@H](CC(C)C)C(=O)N[C@@H](CCCNC(=N)N)C(N)=O
B10: peptide 61 (peptide)
peptide: Ac-ACYFACIEALIRAAQEQQEKNEAALR-NH2
modifications: linker 2-6 via pXylylene
SMILES: CC[C@H](C)[C@H](NC(=O)[C@H](CC(C)C)NC(=O)[C@H](C)NC(=O)[C@H](CCC(=O)O)NC(=O)[C@@H](NC(=O)[C@@H]1CSCc2ccc(cc2)CSC[C@H](NC(=O)[C@H](C)NC(C)=O)C(=O)N[C@@H](Cc2ccc(O)cc2)C(=O)N[C@@H](Cc2ccccc2)C(=O)N[C@@H](C)C(=O)N1)[C@@H](C)CC)C(=O)N[C@@H](CCCNC(=N)N)C(=O)N[C@@H](C)C(=O)N[C@@H](C)C(=O)N[C@@H](CCC(N)=O)C(=O)N[C@@H](CCC(=O)O)C(=O)N[C@@H](CCC(N)=O)C(=O)N[C@@H](CCC(N)=O)C(=O)N[C@@H](CCC(=O)O)C(=O)N[C@@H](CCCCN)C(=O)N[C@@H](CC(N)=O)C(=O)N[C@@H](CCC(=O)O)C(=O)N[C@@H](C)C(=O)N[C@@H](C)C(=O)N[C@@H](CC(C)C)C(=O)N[C@@H](CCCNC(=N)N)C(N)=O
B11: peptide 69 (peptide)
peptide: Ac-ANYLALIEALIRAAQEQQEKNEAALRGSGK(cholesteryl‑succinyl)-NH2
SMILES: CC[C@H](C)[C@H](NC(=O)[C@H](CC(C)C)NC(=O)[C@H](C)NC(=O)[C@H](CCC(=O)O)NC(=O)[C@@H](NC(=O)[C@H](CC(C)C)NC(=O)[C@H](C)NC(=O)[C@H](CC(C)C)NC(=O)[C@H](Cc1ccc(O)cc1)NC(=O)[C@H](CC(N)=O)NC(=O)[C@H](C)NC(C)=O)[C@@H](C)CC)C(=O)N[C@@H](CCCNC(=N)N)C(=O)N[C@@H](C)C(=O)N[C@@H](C)C(=O)N[C@@H](CCC(N)=O)C(=O)N[C@@H](CCC(=O)O)C(=O)N[C@@H](CCC(N)=O)C(=O)N[C@@H](CCC(N)=O)C(=O)N[C@@H](CCC(=O)O)C(=O)N[C@@H](CCCCN)C(=O)N[C@@H](CC(N)=O)C(=O)N[C@@H](CCC(=O)O)C(=O)N[C@@H](C)C(=O)N[C@@H](C)C(=O)N[C@@H](CC(C)C)C(=O)N[C@@H](CCCNC(=N)N)C(=O)NCC(=O)N[C@@H](CO)C(=O)NCC(=O)N[C@@H](CCCCNC(=O)CCC(=O)O[C@H]1CC[C@@]2(C)C(=CC[C@H]3[C@@H]4CC[C@H]([C@H](C)CCCC(C)C)[C@@]4(C)CC[C@@H]32)C1)C(N)=O
B12: peptide 68 (peptide)
peptide: Ac-ACYAACIEALIRAAQEQQEKNEAALR-NH2
modifications: linker 2-6 via pXylylene
SMILES: CC[C@H](C)[C@H](NC(=O)[C@H](CC(C)C)NC(=O)[C@H](C)NC(=O)[C@H](CCC(=O)O)NC(=O)[C@@H](NC(=O)[C@@H]1CSCc2ccc(cc2)CSC[C@H](NC(=O)[C@H](C)NC(C)=O)C(=O)N[C@@H](Cc2ccc(O)cc2)C(=O)N[C@@H](C)C(=O)N[C@@H](C)C(=O)N1)[C@@H](C)CC)C(=O)N[C@@H](CCCNC(=N)N)C(=O)N[C@@H](C)C(=O)N[C@@H](C)C(=O)N[C@@H](CCC(N)=O)C(=O)N[C@@H](CCC(=O)O)C(=O)N[C@@H](CCC(N)=O)C(=O)N[C@@H](CCC(N)=O)C(=O)N[C@@H](CCC(=O)O)C(=O)N[C@@H](CCCCN)C(=O)N[C@@H](CC(N)=O)C(=O)N[C@@H](CCC(=O)O)C(=O)N[C@@H](C)C(=O)N[C@@H](C)C(=O)N[C@@H](CC(C)C)C(=O)N[C@@H](CCCNC(=N)N)C(N)=O
B13: peptide 57 (peptide)
peptide: Ac-ACYIACIEALIRAAQEQQEKNEAALR-NH2
modifications: linker 2-6 via pXylylene
SMILES: CC[C@H](C)[C@@H]1NC(=O)[C@H](Cc2ccc(O)cc2)NC(=O)[C@@H](NC(=O)[C@H](C)NC(C)=O)CSCc2ccc(cc2)CSC[C@@H](C(=O)N[C@H](C(=O)N[C@@H](CCC(=O)O)C(=O)N[C@@H](C)C(=O)N[C@@H](CC(C)C)C(=O)N[C@H](C(=O)N[C@@H](CCCNC(=N)N)C(=O)N[C@@H](C)C(=O)N[C@@H](C)C(=O)N[C@@H](CCC(N)=O)C(=O)N[C@@H](CCC(=O)O)C(=O)N[C@@H](CCC(N)=O)C(=O)N[C@@H](CCC(N)=O)C(=O)N[C@@H](CCC(=O)O)C(=O)N[C@@H](CCCCN)C(=O)N[C@@H](CC(N)=O)C(=O)N[C@@H](CCC(=O)O)C(=O)N[C@@H](C)C(=O)N[C@@H](C)C(=O)N[C@@H](CC(C)C)C(=O)N[C@@H](CCCNC(=N)N)C(N)=O)[C@@H](C)CC)[C@@H](C)CC)NC(=O)[C@H](C)NC1=O

This test deals with gp41 of HIV-1 strain HXB2D with mutation V38A (HIV-1 strain HXB2D, UniProt P04578). The test is described as follows: cell-based or functional assay.
For B1, the “fold change in EC50, HIV-HXB2D V38A mutant” value (“fold change in EC50” below) came out at 16 fold. In the case of B2, the “fold change in EC50” value worked out at 22 fold. For the molecule B3, the “fold change in EC50” value worked out at 15 fold. With B4, the “fold change in EC50” value turned out to be 18 fold.

With B5, the “fold change in EC50” value came out at 66 fold. Consider B6, for which the “fold change in EC50” value was 15 fold.

For B7, the “fold change in EC50” value was 18 fold.

As to B8, the “fold change in EC50” value amounted to 30 fold. In the case of B9, the “fold change in EC50” value amounted to 74 fold. The result for B10 reads 20 fold; that for B11, 1 fold; that for B12, 21 fold. The result for B13 reads 23 fold.
